The record followed here is US20250276075A1, “METHODS OF TREATING AXL-EXPRESSING CANCERS WITH ANTI-AXL ANTIBODIES, ANTIBODY FRAGMENTS AND THEIR IMMUNOCONJUGATES” (BIOATLA, INC., priority 2020, published 2025).

In assay [1] the target is Axl (UniProt P30530). The assay can be described thus: ELISA, 1:3 dilution. Background: ELISA stands for enzyme-linked immunosorbent assay.
Assay [2] concerns the target T1, Axl (Homo sapiens, UniProt P30530).
T1 sequence (P30530 26-451 limits assumed): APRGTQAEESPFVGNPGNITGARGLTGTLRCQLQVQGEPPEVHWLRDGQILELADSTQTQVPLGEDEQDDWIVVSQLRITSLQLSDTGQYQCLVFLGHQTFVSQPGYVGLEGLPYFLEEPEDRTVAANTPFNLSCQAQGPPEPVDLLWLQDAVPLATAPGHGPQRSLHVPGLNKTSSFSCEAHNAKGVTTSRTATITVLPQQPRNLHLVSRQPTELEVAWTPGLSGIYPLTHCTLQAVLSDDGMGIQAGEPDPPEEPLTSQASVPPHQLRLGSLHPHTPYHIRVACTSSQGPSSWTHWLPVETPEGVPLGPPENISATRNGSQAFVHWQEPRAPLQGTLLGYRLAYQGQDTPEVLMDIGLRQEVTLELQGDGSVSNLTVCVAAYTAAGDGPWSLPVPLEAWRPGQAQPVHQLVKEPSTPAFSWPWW
The assay can be described thus: Affinity ELISA of CPE mutant antibodies for binding to Axl at pH 6.0 over pH 7.4. As to conditions: heavy chain variable region mutants; for Affinity ELISA CPE mutant ratio (1:3, pH 6.0/7.4): 1:3 dilution; for Affinity ELISA CPE mutant ratio (1:9, pH 6.0/7.4): 1:9 dilution. The gist of the method:
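Single-point mutant anti-Axl antibody library (CPE) screened by ELISA for binding at pH 6.0 versus pH 7.4, at 1:3 and 1:9 antibody dilutions, in serum with FLAG-tag detection and carbonate (Krebs-Ringer) buffer. Selection criterion: pH 6.0/pH 7.4 binding ratio ≥1.5 at either dilution.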

The target of assay [3] is Axl (UniProt P30530). The assay can be described thus: ELISA, 1:9 dilution.

B1: HC-E102V (antibody, V domains shown)
VH: EVQLVQSGAEVKKPGATVKISCKVSGYSFTGHTMNWIRQPPGKGLEWIGLIKPSNGGTSYNQKFKGRVTISADKSISTAYLQWSSLKASDTAMYYCAHGHYVSYFAMDYWGQGTLVTVSS
VL: DIQMTQSPSSLSASVGDRVTITCKASQDVSSAVAWYQQKPGQAPRLLIYWASTRHTGVPSRFSGSGSGTEFTLTISSLQPDDFATYYCQEHFSTPLTFGQGTKVEIK
On to B1, for which the Affinity ELISA CPE mutant ratio (1:3, pH 6.0/7.4) in the assay with Axl [1] turned out to be 1.93; in the assay with Axl [2], 1.931. Also, the “Affinity ELISA CPE mutant ratio (1:9, pH 6.0/7.4)” value in the assay with Axl [2] worked out at 2.507; in the assay with Axl [3] it was 2.51.

B2: HC-S103N (antibody, V domains shown)
VH: EVQLVQSGAEVKKPGATVKISCKVSGYSFTGHTMNWIRQPPGKGLEWIGLIKPSNGGTSYNQKFKGRVTISADKSISTAYLQWSSLKASDTAMYYCAHGHYENYFAMDYWGQGTLVTVSS
VL: DIQMTQSPSSLSASVGDRVTITCKASQDVSSAVAWYQQKPGQAPRLLIYWASTRHTGVPSRFSGSGSGTEFTLTISSLQPDDFATYYCQEHFSTPLTFGQGTKVEIK
On to B2, for which the Affinity ELISA CPE mutant ratio (1:3, pH 6.0/7.4) was 1.07 in the assay with Axl [1] and 1.075 with Axl [2]. For the same molecule, the “Affinity ELISA CPE mutant ratio (1:9, pH 6.0/7.4)” value with Axl [2] worked out at 3.179; in the assay with Axl [3], 3.18.

B3: HC-H100E (antibody, V domains shown)
VH: EVQLVQSGAEVKKPGATVKISCKVSGYSFTGHTMNWIRQPPGKGLEWIGLIKPSNGGTSYNQKFKGRVTISADKSISTAYLQWSSLKASDTAMYYCAHGEYESYFAMDYWGQGTLVTVSS
VL: DIQMTQSPSSLSASVGDRVTITCKASQDVSSAVAWYQQKPGQAPRLLIYWASTRHTGVPSRFSGSGSGTEFTLTISSLQPDDFATYYCQEHFSTPLTFGQGTKVEIK
On to B3, for which the Affinity ELISA CPE mutant ratio (1:3, pH 6.0/7.4) with Axl [1] stood at 2.77; with Axl [2] it was 2.775. The “Affinity ELISA CPE mutant ratio (1:9, pH 6.0/7.4)” value in the assay with Axl [2] was 3.623; with Axl [3], 3.62.

B4: HC-S103Q (antibody, V domains shown)
VH: EVQLVQSGAEVKKPGATVKISCKVSGYSFTGHTMNWIRQPPGKGLEWIGLIKPSNGGTSYNQKFKGRVTISADKSISTAYLQWSSLKASDTAMYYCAHGHYEQYFAMDYWGQGTLVTVSS
VL: DIQMTQSPSSLSASVGDRVTITCKASQDVSSAVAWYQQKPGQAPRLLIYWASTRHTGVPSRFSGSGSGTEFTLTISSLQPDDFATYYCQEHFSTPLTFGQGTKVEIK
Consider B4, for which the Affinity ELISA CPE mutant ratio (1:3, pH 6.0/7.4) with Axl [1] and with Axl [2] was 0.912 each time. For the same molecule, the “Affinity ELISA CPE mutant ratio (1:9, pH 6.0/7.4)” value with Axl [2] was 2.256; in the assay with Axl [3] it was 2.26.

B5: HC-S103D (antibody, V domains shown)
VH: EVQLVQSGAEVKKPGATVKISCKVSGYSFTGHTMNWIRQPPGKGLEWIGLIKPSNGGTSYNQKFKGRVTISADKSISTAYLQWSSLKASDTAMYYCAHGHYEDYFAMDYWGQGTLVTVSS
VL: DIQMTQSPSSLSASVGDRVTITCKASQDVSSAVAWYQQKPGQAPRLLIYWASTRHTGVPSRFSGSGSGTEFTLTISSLQPDDFATYYCQEHFSTPLTFGQGTKVEIK
On to B5, for which the figures for the Affinity ELISA CPE mutant ratio (1:3, pH 6.0/7.4) in the assay with Axl [1] and with Axl [2] were 4.24 and 4.237, respectively. The figures for the “Affinity ELISA CPE mutant ratio (1:9, pH 6.0/7.4)” value with Axl [2] and with Axl [3] were 2.230 and 2.23, respectively.

B6: HC-H100D (antibody, V domains shown)
VH: EVQLVQSGAEVKKPGATVKISCKVSGYSFTGHTMNWIRQPPGKGLEWIGLIKPSNGGTSYNQKFKGRVTISADKSISTAYLQWSSLKASDTAMYYCAHGDYESYFAMDYWGQGTLVTVSS
VL: DIQMTQSPSSLSASVGDRVTITCKASQDVSSAVAWYQQKPGQAPRLLIYWASTRHTGVPSRFSGSGSGTEFTLTISSLQPDDFATYYCQEHFSTPLTFGQGTKVEIK
Regarding B6, the Affinity ELISA CPE mutant ratio (1:3, pH 6.0/7.4) with Axl [1] amounted to 2.42; with Axl [2], 2.416. The “Affinity ELISA CPE mutant ratio (1:9, pH 6.0/7.4)” value amounted to 3.094 in the assay with Axl [2] and 3.09 with Axl [3].

B7: HC-H100R (antibody, V domains shown)
VH: EVQLVQSGAEVKKPGATVKISCKVSGYSFTGHTMNWIRQPPGKGLEWIGLIKPSNGGTSYNQKFKGRVTISADKSISTAYLQWSSLKASDTAMYYCAHGRYESYFAMDYWGQGTLVTVSS
VL: DIQMTQSPSSLSASVGDRVTITCKASQDVSSAVAWYQQKPGQAPRLLIYWASTRHTGVPSRFSGSGSGTEFTLTISSLQPDDFATYYCQEHFSTPLTFGQGTKVEIK
Take B7: the Affinity ELISA CPE mutant ratio (1:3, pH 6.0/7.4) with Axl [1] came to 1.88; with Axl [2], 1.877. The figures for the “Affinity ELISA CPE mutant ratio (1:9, pH 6.0/7.4)” value with Axl [2] and in the assay with Axl [3] were 2.507 and 2.51, respectively.

B8: HC-H100W (antibody, V domains shown)
VH: EVQLVQSGAEVKKPGATVKISCKVSGYSFTGHTMNWIRQPPGKGLEWIGLIKPSNGGTSYNQKFKGRVTISADKSISTAYLQWSSLKASDTAMYYCAHGWYESYFAMDYWGQGTLVTVSS
VL: DIQMTQSPSSLSASVGDRVTITCKASQDVSSAVAWYQQKPGQAPRLLIYWASTRHTGVPSRFSGSGSGTEFTLTISSLQPDDFATYYCQEHFSTPLTFGQGTKVEIK
As to B8, the Affinity ELISA CPE mutant ratio (1:3, pH 6.0/7.4) with Axl [1] turned out to be 4.94; with Axl [2] it was 4.937. The “Affinity ELISA CPE mutant ratio (1:9, pH 6.0/7.4)” value with Axl [2] came out at 5.908; with Axl [3] it was 5.91.

B9: HC-S059T (antibody, V domains shown)
VH: EVQLVQSGAEVKKPGATVKISCKVSGYSFTGHTMNWIRQPPGKGLEWIGLIKPSNGGTTYNQKFKGRVTISADKSISTAYLQWSSLKASDTAMYYCAHGHYESYFAMDYWGQGTLVTVSS
VL: DIQMTQSPSSLSASVGDRVTITCKASQDVSSAVAWYQQKPGQAPRLLIYWASTRHTGVPSRFSGSGSGTEFTLTISSLQPDDFATYYCQEHFSTPLTFGQGTKVEIK
Turning to B9, the figures for the Affinity ELISA CPE mutant ratio (1:3, pH 6.0/7.4) with Axl [1] and with Axl [2] were 1.02 and 1.021, respectively. For the same molecule, the “Affinity ELISA CPE mutant ratio (1:9, pH 6.0/7.4)” value with Axl [2] was 1.926; with Axl [3], 1.93.

B10: HC-E102L (antibody, V domains shown)
VH: EVQLVQSGAEVKKPGATVKISCKVSGYSFTGHTMNWIRQPPGKGLEWIGLIKPSNGGTSYNQKFKGRVTISADKSISTAYLQWSSLKASDTAMYYCAHGHYLSYFAMDYWGQGTLVTVSS
VL: DIQMTQSPSSLSASVGDRVTITCKASQDVSSAVAWYQQKPGQAPRLLIYWASTRHTGVPSRFSGSGSGTEFTLTISSLQPDDFATYYCQEHFSTPLTFGQGTKVEIK
B10: the results for the Affinity ELISA CPE mutant ratio (1:3, pH 6.0/7.4) in the assay with Axl [1] and with Axl [2] were 3.27 and 3.266, respectively. The “Affinity ELISA CPE mutant ratio (1:9, pH 6.0/7.4)” value in the assay with Axl [2] turned out to be 2.698; in the assay with Axl [3], 2.7.

B11: HC-E102Y (antibody, V domains shown)
VH: EVQLVQSGAEVKKPGATVKISCKVSGYSFTGHTMNWIRQPPGKGLEWIGLIKPSNGGTSYNQKFKGRVTISADKSISTAYLQWSSLKASDTAMYYCAHGHYYSYFAMDYWGQGTLVTVSS
VL: DIQMTQSPSSLSASVGDRVTITCKASQDVSSAVAWYQQKPGQAPRLLIYWASTRHTGVPSRFSGSGSGTEFTLTISSLQPDDFATYYCQEHFSTPLTFGQGTKVEIK
With B11, the Affinity ELISA CPE mutant ratio (1:3, pH 6.0/7.4) turned out to be 2.61 in the assay with Axl [1] and 2.610 in the assay with Axl [2]. Besides, the entries for the “Affinity ELISA CPE mutant ratio (1:9, pH 6.0/7.4)” value with Axl [2] and in the assay with Axl [3] were 1.990 and 1.99, respectively.

B12: HC-S103M (antibody, V domains shown)
VH: EVQLVQSGAEVKKPGATVKISCKVSGYSFTGHTMNWIRQPPGKGLEWIGLIKPSNGGTSYNQKFKGRVTISADKSISTAYLQWSSLKASDTAMYYCAHGHYEMYFAMDYWGQGTLVTVSS
VL: DIQMTQSPSSLSASVGDRVTITCKASQDVSSAVAWYQQKPGQAPRLLIYWASTRHTGVPSRFSGSGSGTEFTLTISSLQPDDFATYYCQEHFSTPLTFGQGTKVEIK
For B12, the Affinity ELISA CPE mutant ratio (1:3, pH 6.0/7.4) in the assay with Axl [1] is 1.78; with Axl [2], 1.784. Besides, the “Affinity ELISA CPE mutant ratio (1:9, pH 6.0/7.4)” value is 1.806 with Axl [2] and 1.81 with Axl [3].

B13: HC-H100P (antibody, V domains shown)
VH: EVQLVQSGAEVKKPGATVKISCKVSGYSFTGHTMNWIRQPPGKGLEWIGLIKPSNGGTSYNQKFKGRVTISADKSISTAYLQWSSLKASDTAMYYCAHGPYESYFAMDYWGQGTLVTVSS
VL: DIQMTQSPSSLSASVGDRVTITCKASQDVSSAVAWYQQKPGQAPRLLIYWASTRHTGVPSRFSGSGSGTEFTLTISSLQPDDFATYYCQEHFSTPLTFGQGTKVEIK
In the case of B13, the Affinity ELISA CPE mutant ratio (1:3, pH 6.0/7.4) in the assay with Axl [1] was found to be 2.58; with Axl [2] it was 2.575. Moreover, the “Affinity ELISA CPE mutant ratio (1:9, pH 6.0/7.4)” value with Axl [2] came out at 1.179; with Axl [3], 1.18.
